From patent US20220281976A1

Tests used:
[1] = molecular target: human CD33 (human) (UniProt P20138); assay: flow cytometry, human primary dendritic cells
[2] = molecular target: human CD33 (human) (UniProt P20138); assay: flow cytometry, human primary macrophages
[3] = molecular target: human CD33 (human) (UniProt P20138); assay: flow cytometry, human primary T cells
[4] = molecular target: human CD33 (human) (UniProt P20138); assay: flow cytometry, human primary monocytes

human CD33 (human), sequence (P20138 18-364): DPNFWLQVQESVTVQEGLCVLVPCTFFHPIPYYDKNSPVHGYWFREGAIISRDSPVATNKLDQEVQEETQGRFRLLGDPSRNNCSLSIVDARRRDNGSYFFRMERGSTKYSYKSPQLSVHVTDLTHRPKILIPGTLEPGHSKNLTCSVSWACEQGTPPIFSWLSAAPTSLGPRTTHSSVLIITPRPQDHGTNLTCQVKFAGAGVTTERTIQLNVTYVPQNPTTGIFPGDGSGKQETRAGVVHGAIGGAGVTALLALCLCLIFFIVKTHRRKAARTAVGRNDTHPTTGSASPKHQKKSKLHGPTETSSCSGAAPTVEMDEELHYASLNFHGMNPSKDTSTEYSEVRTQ

isotype control antibody
DC MFI [1]: 178
Macrophage MFI [2]: 451
T cell MFI [3]: 42.9
Monocyte MFI [4]: 43.2
